Reference: PMC11998529

Molecular target: mitochondrial antiviral signaling protein (MAVS), full length, Flag-tagged (human (cDNA from HEK293T)) (UniProt Q7Z434)
Sequence of UniProt Q7Z434 (Q7Z434 whole entry): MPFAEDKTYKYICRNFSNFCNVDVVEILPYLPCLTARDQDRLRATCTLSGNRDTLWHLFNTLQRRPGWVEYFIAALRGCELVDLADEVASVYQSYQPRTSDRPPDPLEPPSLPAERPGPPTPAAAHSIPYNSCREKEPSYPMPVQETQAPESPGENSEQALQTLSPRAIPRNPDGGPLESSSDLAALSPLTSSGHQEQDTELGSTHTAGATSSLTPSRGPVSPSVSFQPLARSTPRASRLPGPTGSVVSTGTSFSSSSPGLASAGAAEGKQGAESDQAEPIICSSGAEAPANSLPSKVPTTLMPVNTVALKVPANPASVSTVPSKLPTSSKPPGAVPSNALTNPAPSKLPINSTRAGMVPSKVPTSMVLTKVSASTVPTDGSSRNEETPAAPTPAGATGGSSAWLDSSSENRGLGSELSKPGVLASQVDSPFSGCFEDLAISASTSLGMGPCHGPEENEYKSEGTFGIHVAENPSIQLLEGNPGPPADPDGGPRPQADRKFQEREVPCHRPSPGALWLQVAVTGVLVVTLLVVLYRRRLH

Work on “EV-D68 structural protein VP3, HA-tagged (from UniProt Q68T42 318-552) (natural protein)” yielded an inhibition of MAVS-activated NF-κB promoter activity, dual-luciferase reporter in HEK293T, 600 ng VP3-HA plasmid of 70%.
